Laboratory results as given in publication PMC12416549 (2024).

T1: TNFR1 (Homo sapiens, UniProt P19438)
T1 chain: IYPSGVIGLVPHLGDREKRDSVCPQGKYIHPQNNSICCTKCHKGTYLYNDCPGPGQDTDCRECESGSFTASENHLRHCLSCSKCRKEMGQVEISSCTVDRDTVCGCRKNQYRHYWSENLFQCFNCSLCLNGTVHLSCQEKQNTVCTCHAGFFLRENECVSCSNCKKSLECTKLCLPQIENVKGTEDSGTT


Target: T1, TNFR1
Assay: yeast display SC50

apparent Kd (screen) [nM] | Binder
0.49 | K88Y (designed binder) SMEEEVEKAAKEYEKKKKEAIEKHLEKLKAKDKEAAERFLKELEEAAKEYAKDEAKTMSEEEAKRRAKKYKEKVLLSELSEEEQKEIYEAEEKLVRTILKYVEEAAK
6.43 | L99N (designed binder) SMEEEVEKAAKEYEKKKKEAIEKHLEKLKAKDKEAAERFLKELEEAAKEYAKDEAKTMSEEEAKRRAKKYKEKVLLSELSEEEQKEIKEAEEKLVRTINKYVEEAAK
3.3 | F39N (designed binder) SMEEEVEKAAKEYEKKKKEAIEKHLEKLKAKDKEAAERNLKELEEAAKEYAKDEAKTMSEEEAKRRAKKYKEKVLLSELSEEEQKEIKEAEEKLVRTILKYVEEAAK
0.446 | L28F (designed binder) SMEEEVEKAAKEYEKKKKEAIEKHLEKFKAKDKEAAERFLKELEEAAKEYAKDEAKTMSEEEAKRRAKKYKEKVLLSELSEEEQKEIKEAEEKLVRTILKYVEEAAK
0.446 | Y13N (designed binder) SMEEEVEKAAKENEKKKKEAIEKHLEKLKAKDKEAAERFLKELEEAAKEYAKDEAKTMSEEEAKRRAKKYKEKVLLSELSEEEQKEIKEAEEKLVRTILKYVEEAAK
0.446 | E34V (designed binder) SMEEEVEKAAKEYEKKKKEAIEKHLEKLKAKDKVAAERFLKELEEAAKEYAKDEAKTMSEEEAKRRAKKYKEKVLLSELSEEEQKEIKEAEEKLVRTILKYVEEAAK
0.869 | E104M (designed binder) SMEEEVEKAAKEYEKKKKEAIEKHLEKLKAKDKEAAERFLKELEEAAKEYAKDEAKTMSEEEAKRRAKKYKEKVLLSELSEEEQKEIKEAEEKLVRTILKYVEMAAK
0.539 | T97Y (designed binder) SMEEEVEKAAKEYEKKKKEAIEKHLEKLKAKDKEAAERFLKELEEAAKEYAKDEAKTMSEEEAKRRAKKYKEKVLLSELSEEEQKEIKEAEEKLVRYILKYVEEAAK
0.539 | K18N (designed binder) SMEEEVEKAAKEYEKKKNEAIEKHLEKLKAKDKEAAERFLKELEEAAKEYAKDEAKTMSEEEAKRRAKKYKEKVLLSELSEEEQKEIKEAEEKLVRTILKYVEEAAK
1.4 | R38I (designed binder) SMEEEVEKAAKEYEKKKKEAIEKHLEKLKAKDKEAAEIFLKELEEAAKEYAKDEAKTMSEEEAKRRAKKYKEKVLLSELSEEEQKEIKEAEEKLVRTILKYVEEAAK
5.84 | Q84F (designed binder) SMEEEVEKAAKEYEKKKKEAIEKHLEKLKAKDKEAAERFLKELEEAAKEYAKDEAKTMSEEEAKRRAKKYKEKVLLSELSEEEFKEIKEAEEKLVRTILKYVEEAAK
1.86 | S77R (designed binder) SMEEEVEKAAKEYEKKKKEAIEKHLEKLKAKDKEAAERFLKELEEAAKEYAKDEAKTMSEEEAKRRAKKYKEKVLLRELSEEEQKEIKEAEEKLVRTILKYVEEAAK
4.39 | Q84E (designed binder) SMEEEVEKAAKEYEKKKKEAIEKHLEKLKAKDKEAAERFLKELEEAAKEYAKDEAKTMSEEEAKRRAKKYKEKVLLSELSEEEEKEIKEAEEKLVRTILKYVEEAAK
0.79 | E78L (designed binder) SMEEEVEKAAKEYEKKKKEAIEKHLEKLKAKDKEAAERFLKELEEAAKEYAKDEAKTMSEEEAKRRAKKYKEKVLLSLLSEEEQKEIKEAEEKLVRTILKYVEEAAK
1.4 | E3R (designed binder) SMREEVEKAAKEYEKKKKEAIEKHLEKLKAKDKEAAERFLKELEEAAKEYAKDEAKTMSEEEAKRRAKKYKEKVLLSELSEEEQKEIKEAEEKLVRTILKYVEEAAK
0.0802 | A47E (designed binder) SMEEEVEKAAKEYEKKKKEAIEKHLEKLKAKDKEAAERFLKELEEAEKEYAKDEAKTMSEEEAKRRAKKYKEKVLLSELSEEEQKEIKEAEEKLVRTILKYVEEAAK
1.4 | E89G (designed binder) SMEEEVEKAAKEYEKKKKEAIEKHLEKLKAKDKEAAERFLKELEEAAKEYAKDEAKTMSEEEAKRRAKKYKEKVLLSELSEEEQKEIKGAEEKLVRTILKYVEEAAK
4.83 | L76S (designed binder) SMEEEVEKAAKEYEKKKKEAIEKHLEKLKAKDKEAAERFLKELEEAAKEYAKDEAKTMSEEEAKRRAKKYKEKVLSSELSEEEQKEIKEAEEKLVRTILKYVEEAAK

apparent Kd (screen) [nM] | Binder
0.956 | K27D (designed binder) SMEEEVEKAAKEYEKKKKEAIEKHLEDLKAKDKEAAERFLKELEEAAKEYAKDEAKTMSEEEAKRRAKKYKEKVLLSELSEEEQKEIKEAEEKLVRTILKYVEEAAK
1.54 | E78S (designed binder) SMEEEVEKAAKEYEKKKKEAIEKHLEKLKAKDKEAAERFLKELEEAAKEYAKDEAKTMSEEEAKRRAKKYKEKVLLSSLSEEEQKEIKEAEEKLVRTILKYVEEAAK
1.05 | R65L (designed binder) SMEEEVEKAAKEYEKKKKEAIEKHLEKLKAKDKEAAERFLKELEEAAKEYAKDEAKTMSEEEAKLRAKKYKEKVLLSELSEEEQKEIKEAEEKLVRTILKYVEEAAK
0.79 | K18R (designed binder) SMEEEVEKAAKEYEKKKREAIEKHLEKLKAKDKEAAERFLKELEEAAKEYAKDEAKTMSEEEAKRRAKKYKEKVLLSELSEEEQKEIKEAEEKLVRTILKYVEEAAK
1.27 | A10E (designed binder) SMEEEVEKAEKEYEKKKKEAIEKHLEKLKAKDKEAAERFLKELEEAAKEYAKDEAKTMSEEEAKRRAKKYKEKVLLSELSEEEQKEIKEAEEKLVRTILKYVEEAAK
1.27 | R96P (designed binder) SMEEEVEKAAKEYEKKKKEAIEKHLEKLKAKDKEAAERFLKELEEAAKEYAKDEAKTMSEEEAKRRAKKYKEKVLLSELSEEEQKEIKEAEEKLVPTILKYVEEAAK
1.4 | A90I (designed binder) SMEEEVEKAAKEYEKKKKEAIEKHLEKLKAKDKEAAERFLKELEEAAKEYAKDEAKTMSEEEAKRRAKKYKEKVLLSELSEEEQKEIKEIEEKLVRTILKYVEEAAK
1.69 | A36T (designed binder) SMEEEVEKAAKEYEKKKKEAIEKHLEKLKAKDKEATERFLKELEEAAKEYAKDEAKTMSEEEAKRRAKKYKEKVLLSELSEEEQKEIKEAEEKLVRTILKYVEEAAK
0.539 | S1S (designed binder) SMEEEVEKAAKEYEKKKKEAIEKHLEKLKAKDKEAAERFLKELEEAAKEYAKDEAKTMSEEEAKRRAKKYKEKVLLSELSEEEQKEIKEAEEKLVRTILKYVEEAAK
7.07 | Y70T (designed binder) SMEEEVEKAAKEYEKKKKEAIEKHLEKLKAKDKEAAERFLKELEEAAKEYAKDEAKTMSEEEAKRRAKKTKEKVLLSELSEEEQKEIKEAEEKLVRTILKYVEEAAK
0.446 | E34M (designed binder) SMEEEVEKAAKEYEKKKKEAIEKHLEKLKAKDKMAAERFLKELEEAAKEYAKDEAKTMSEEEAKRRAKKYKEKVLLSELSEEEQKEIKEAEEKLVRTILKYVEEAAK
0.869 | K31I (designed binder) SMEEEVEKAAKEYEKKKKEAIEKHLEKLKAIDKEAAERFLKELEEAAKEYAKDEAKTMSEEEAKRRAKKYKEKVLLSELSEEEQKEIKEAEEKLVRTILKYVEEAAK
0.446 | K69Q (designed binder) SMEEEVEKAAKEYEKKKKEAIEKHLEKLKAKDKEAAERFLKELEEAAKEYAKDEAKTMSEEEAKRRAKQYKEKVLLSELSEEEQKEIKEAEEKLVRTILKYVEEAAK
2.73 | E3S (designed binder) SMSEEVEKAAKEYEKKKKEAIEKHLEKLKAKDKEAAERFLKELEEAAKEYAKDEAKTMSEEEAKRRAKKYKEKVLLSELSEEEQKEIKEAEEKLVRTILKYVEEAAK
0.49 | K88R (designed binder) SMEEEVEKAAKEYEKKKKEAIEKHLEKLKAKDKEAAERFLKELEEAAKEYAKDEAKTMSEEEAKRRAKKYKEKVLLSELSEEEQKEIREAEEKLVRTILKYVEEAAK
0.869 | E19I (designed binder) SMEEEVEKAAKEYEKKKKIAIEKHLEKLKAKDKEAAERFLKELEEAAKEYAKDEAKTMSEEEAKRRAKKYKEKVLLSELSEEEQKEIKEAEEKLVRTILKYVEEAAK
0.446 | E37G (designed binder) SMEEEVEKAAKEYEKKKKEAIEKHLEKLKAKDKEAAGRFLKELEEAAKEYAKDEAKTMSEEEAKRRAKKYKEKVLLSELSEEEQKEIKEAEEKLVRTILKYVEEAAK
